We go through 14 molecules from PMC8130932 (PLoS Pathogens, 2021).

Assay [1] concerns the target SARS-CoV-2 nucleocapsid, recombinant (SARS-CoV-2, reference sequence, UniProt P0DTC9). Description: ELISA.
Assay [2] addresses T1, SARS nucleocapsid, recombinant (SARS-CoV, reference sequence (strain …, UniProt P59595)).
T1 construct: source: bought: Sino Biologicals, baculovirus-insect cells
Put plainly: ELISA.

The target in assay [3] is SARS-CoV-2 spike glycoprotein of wild-type virus, in infected Vero E6 cells (SARS-CoV-2 …, UniProt P0DTC2). Description: cell-based or functional assay.
Assay [4] deals with T2, SARS-CoV-2 RBD (amino acids 340-538) on MDCK-SIAT1 cells (SARS-CoV-2 (so in the source)).
T2 construct: also called MDCK-RBD; source: MDCK-SIAT1, stably transduced (lentiviral vector), on the cell surface
Description: flow cytometry on cells. To be noted: one partner purified.

For assay [5], the target named is T3, SARS-CoV-2 NTD on MDCK-SIAT1 cells (SARS-CoV-2 (so in the source)).
T3 construct: also called MDCK-NTD
Description: flow cytometry on cells. To be noted: one partner purified.

In assay [6] the target is T4, SARS-CoV-2 spike S2 subunit, recombinant (SARS-CoV-2, reference sequence, UniProt P0DTC2).
T4 construct: source: bought: Sino Biologicals, baculovirus-insect cells
Description: ELISA.

The target in assay [7] is T5, MERS spike glycoprotein S1+S2 extracellular domain (MERS coronavirus, isolate EMC/2012 (by …, UniProt K0BRG7)).
T5 construct: source: bought: Sino Biologicals, baculovirus-insect cells
Put plainly: ELISA.

Assay [8] has as its target T6, Human coronavirus OC43 spike glycoprotein S1+S2 extracellular domain (Human coronavirus OC43, AVR40344.1 (by …)).
T6 construct: source: bought: Sino Biologicals
T6 chain: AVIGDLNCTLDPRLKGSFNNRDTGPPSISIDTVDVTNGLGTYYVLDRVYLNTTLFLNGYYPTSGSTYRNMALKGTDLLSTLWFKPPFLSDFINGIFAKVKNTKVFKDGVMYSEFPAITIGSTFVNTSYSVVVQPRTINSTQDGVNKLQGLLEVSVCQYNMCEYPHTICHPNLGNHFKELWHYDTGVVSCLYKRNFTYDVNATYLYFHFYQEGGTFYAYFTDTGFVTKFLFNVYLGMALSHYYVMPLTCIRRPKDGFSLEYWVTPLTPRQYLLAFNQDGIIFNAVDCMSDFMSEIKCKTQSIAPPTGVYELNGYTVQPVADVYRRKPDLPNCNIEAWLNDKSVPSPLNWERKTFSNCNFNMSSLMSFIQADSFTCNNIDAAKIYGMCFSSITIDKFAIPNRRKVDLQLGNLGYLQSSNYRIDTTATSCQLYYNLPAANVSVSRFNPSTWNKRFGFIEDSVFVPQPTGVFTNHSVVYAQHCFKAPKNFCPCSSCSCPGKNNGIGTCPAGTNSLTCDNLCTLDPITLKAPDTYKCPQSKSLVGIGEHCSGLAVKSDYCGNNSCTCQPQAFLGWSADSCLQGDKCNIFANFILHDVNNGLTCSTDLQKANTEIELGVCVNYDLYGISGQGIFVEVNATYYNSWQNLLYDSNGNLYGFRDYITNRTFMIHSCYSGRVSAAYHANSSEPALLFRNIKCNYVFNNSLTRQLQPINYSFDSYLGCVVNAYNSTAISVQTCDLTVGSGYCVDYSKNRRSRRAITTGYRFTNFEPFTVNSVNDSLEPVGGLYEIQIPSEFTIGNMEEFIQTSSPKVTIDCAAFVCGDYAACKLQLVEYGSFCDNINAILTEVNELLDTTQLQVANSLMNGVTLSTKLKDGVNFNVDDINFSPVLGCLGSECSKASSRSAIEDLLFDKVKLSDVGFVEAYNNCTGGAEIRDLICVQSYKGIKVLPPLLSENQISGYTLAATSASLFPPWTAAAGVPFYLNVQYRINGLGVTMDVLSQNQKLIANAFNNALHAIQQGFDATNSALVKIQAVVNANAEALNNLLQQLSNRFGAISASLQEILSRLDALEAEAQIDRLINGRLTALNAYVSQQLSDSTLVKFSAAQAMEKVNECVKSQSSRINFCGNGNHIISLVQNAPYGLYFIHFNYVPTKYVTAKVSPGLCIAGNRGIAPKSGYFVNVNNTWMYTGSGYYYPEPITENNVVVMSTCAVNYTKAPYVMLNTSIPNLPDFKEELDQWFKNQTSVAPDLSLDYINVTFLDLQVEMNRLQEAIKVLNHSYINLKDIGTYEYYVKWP
Description: ELISA.

B1: FD 6D (antibody, V domains shown)
VH: EVQLVESGPGLVKVSETLFLTCTVSGYSIGSGNYWGWIRQPPGKVLEWIGSTYHSGTTYYNPSLKSRVTISVDSSKNQFSLKLTSVTAADTAVYYCARDRLLAVHYDSRGYLVDYWGQGTMVTVSS
VL: AIRMTQSPDSLAVSLGERATINCKSSQSIFYSSNNKNYLAWYQHKPGQPPKLLIYWASTRESGVPDRFSGSGSGTDFTLTISSLQAEDVAIYYCQQYYDIPRTFGQGTKVEIR
notes: source: HEK293T, transfected; culture supernatant or purified
In the case of B1, the OD450 in assay [1] amounted to 1.73 OD450; in assay [2], 1.19 OD450.

B2: EY 2A (antibody, V domains shown)
VH: QVQLVESGAEVTKPGDSLIISCKGSGYAFTQYWIGWVRQKPGKGLEWMAMVYPDSSAVFAGGASGVRYRPPFQGQVTISADTSVNTAYLQWDSLKASDTAMYYCVRQERGSNTWYAGNSWGQGTLVTVSS
VL: DIVMTQSPLSLPVSPGEPASISCRSSQSLLHTDAYNYLDWYLQKPGQSPQLLIYLGSTRASGVPDRFSGSGSGTDFTLKISSVKAEDVGVYYCMQALQTPGTFGQGTKLEIK
notes: as for B1
Take B2: the OD450 amounted to 1.28 OD450 in assay [1] and 1.13 OD450 in assay [2].

B3: EY 3B (antibody, V domains shown)
VH: EVQLVESGAEVTKPGESLIISCKGSGYAFTQYWIGWVRQKPGKGLEWMAMVYPDSSAVFAGGASGVRYRPPFQGQVTISADTSVNTAYLQWDSLKASDTAMYYCVRQERGSNTWYAGNSWGQGTLVTVFS
VL: EIVLTQSPLSLPVSPGEPASISCRSSQSLLHTDAYNYLDWYLQKPGQSPQLLIYLGSTRASGVPDRFSGSGSGTDFTLKISSVKAEDVGVYYCMQALQTPGTFGQGTKVEIR
notes: as for B1
For the molecule B3, the OD450 stood at 1.22 OD450 in assay [1] and 1 OD450 in assay [2].

B4: FJ 1C (antibody, V domains shown)
VH: QVQLQESGPGLVKPSETLSLTCTVSGYSISSGYYWGWIRQPPGKGLEWIGSIYHSGSTYYNPSLKSRVTISVDTSKNQFSLKLSSVTAADTAVYYCARDKALLWFGELFTNLFDYWGQGTLVTVSS
VL: QSALTQPASVSGSPGQSITISCTGTSSDVGGYNYVSWYQQHPGKAPKLMIYEVSNRPSGVSNRFSGSKSGNTASLTISGLQAEDEANYYCSSYTSSSTLVFGGGTKLTVL
notes: as for B1
On to B4, for which the “PRNT EC50, wild-type SARS-CoV-2 (hCoV-19/England/02/2020) on Vero E6 cells” value (“PRNT EC50” below) in assay [3] was found to be 55.5 nM. In addition, the binding result in assay [4] is “no binding”; in assay [5] it was “binds”.

B5: EZ 11A (antibody, V domains shown)
VH: EVQLVESGGGLVQPGGSLRLSCAASGFTFSSYWMSWVRQAPGKGLEWVANIKQDGSEKYYVDSVKGRFTISRDNAKNSLYLQMNSLRAEDTAVYYCARDDYSGSYYWEFDYWGQGTLVTVSS
VL: QPVLTQSPSASASLGASVKLTCTLSSGHSSYAIAWHQQQPEKGPRYLMKLNSDGSHSKGDGIPDRFSGSSSGAERYLTISSLQSEDEADYYCQTWGTGIWVFGGGTKLTVL
notes: as for B1
Turning to B5, the OD450 in assay [1] stood at 1.29 OD450; in assay [2], 1.31 OD450.

B6: FJ 4E (antibody, V domains shown)
VH: QVQLVESGPGLVKPSETLSLTCSVSGGSISSGTYYWSWIRQQPGKGLEWIGYIYNTGRPYYNPFLKSRITISVDSSKNQFSLKLTSVTAADTAVYYCARDEYDSSDSGIQGHWFDPWGQGTLVTVSS
VL: AIRMTQSPSSLSASVGDRVTITCRTSQNINSFLNWYQQKPGKGPNLLIYGAFTLQSGVPSRFSGSGSGTDFTLTISSLQPEDFATYFCQQSYSTPWTFGQGTKVEIK
notes: as for B1
Consider B6, for which the values for the OD450 in assay [6], in assay [7] and in assay [8] were 0.91 OD450, 1.08 OD450 and 1.68 OD450, respectively. Further, the binding result in assay [4] and in assay [5] was “no binding” throughout.

B7: EZ 7B (antibody, V domains shown)
VH: EVQLVESSPGLVKPSETLSLTCTVSGGSISSYYWSWIRQPPGKGLEWIGYIYYSGSTNYNPSLKSRVTISVDTSKNQFSLKLSSVTAADTAVYYCARRVFGPVLPSKLGGSYWGGGAFDIWGQGTMVTVSS
VL: not shown
notes: as for B1
With B7, in assay [1], the OD450 was 1.01 OD450.

B8: EZ 4C-1 (antibody, V domains shown)
VH: EVQLVESGPGLVKPSETLSLTCTVSGGSVSSGNNYWSWIRQPPGKALEWIGYIYYSGSTKYNPSLKSRVTMSVGTSKNQFSLKVNSVTAADTAMYYCARAPSAPFGGLFDWILPKGINNWGQGTLVTVSS
VL: EIVLTQSPSTLSASVGDRVTITCRTSQSIRSWLAWYQQKPGKAPKLLIFEASTLESGVPERFSGSGSGAEFTLTISSLQPDDFATYYCQQYNGYSYSFGQGTKVEIR
notes: as for B1
On to B8, for which the OD450 in assay [1] worked out at 0.6 OD450.

B9: EZ 4A (antibody, V domains shown)
VH: EVQLVQSGAEVKKPGESLKISCKGSGYSFTSYWIGWVRQMPGKGLEWMGIIYPGDSDTRYSPSFQGQVTISADKSISTAYLQWSSLKASDTAMYYCARSPIAADLFDYWGQGTLVTVSS
VL: not shown
notes: as for B1
As to B9, in assay [1], the OD450 is 1.03 OD450.

B10: FD 10A (antibody, V domains shown)
VH: EVQLVESGGGLVQPGGSLRLSCAASGFTFSSYWMHWVRQAPGKGLVWVSRINSDGSSTSYADSVKGRFTISRDNAKNTLYLQMNSLRAEDTAVYYCANMAFDIWGQGTMVTVSS
VL: not shown
notes: as for B1
Take B10: the OD450 in assay [6] came out at 1.32 OD450. Further, in assay [3], the “PRNT EC50” value came out at 111 nM. Also, the binding result in assay [4] and in assay [5] was “no binding” each time.

B11: FN 2C (antibody, V domains shown)
VH: EVQLLESGGGVVQPGRSLRLSCAASGFNFNNYGMHWVRQAPGKGLEWVATISYEGSKKFYVDSVKGRFTISKDNSKNTLYLQMNSLRVDDTAFYYCAKRREIFWLGEPPLSDAFDFWGQGTMVTVSS
VL: QSVLTQPPSVSGAPGQRVTISCTGSGSNIGAGYDVHWYQFLPGTAPQLLIYGNNNRPSGVPDRFSGSKSGTSASLAITGLQAEDEADYYCQSYDSSLSGSVFGGGTKLTVL
notes: as for B1
For B11, the OD450 in assay [6] came out at 1.15 OD450; in assay [8], 2.2 OD450.

B12: EW 9C (antibody, V domains shown)
VH: EVQLVESGGGVVQPGASLRLSCVASGFTFNNFGFHWVRQAPGKGLEWLAVISYEGSKTYYAESLKGRFTISRDTSKNTVYLQMNSLRAEDTAVYYCARATSIFWFGEGRNWFDPWGQGTMVTVSS
VL: EIVLTQSPGTVSLSAGERATLSCRASQNVGTDLAWYVQRPGQAPRLLIYDTSNKATGIPARFSGRGSGTDFTLTIDSLEPEDFAVYYCQQRSNWPLTFGGGTKVEIR
notes: as for B1
Take B12: the results for the OD450 in assay [6] and in assay [8] were 1.17 OD450 and 1.82 OD450, respectively. The “PRNT EC50” value in assay [3] stood at 133 nM.

B13: FD 11E (antibody, V domains shown)
VH: EVQLVESGGGLVKPGGSLRLSCAASGFTFSSYSMNWVRQAPGKGLEWVSSISSSSSYIYYADSVKGRFTISRDNAKNSLYLQMNSLRAEDTAVYYCASLAAAGPETYYYYGMDVWGQGTMVTVSS
VL: not shown
notes: as for B1
As to B13, the “PRNT EC50” value in assay [3] amounted to 70 nM. Also, the binding result in assay [4] and in assay [5] was “no binding” each time.

B14: FD 1E (antibody, V domains shown)
VH: EVQLLESGGGLVKPGGSLRLSCAASGFTFSSYSMNWVRQAPGKGLEWVSSISSSSSYIYYADSVKGRFTISRDNAKNSLYLQMNSLRAEDTAVYYCASLAAAGPETYYYYGMDVWGQGTMVTVSS
VL: not shown
notes: as for B1
Regarding B14, the “PRNT EC50” value in assay [3] amounted to 110 nM.
